Numbering of substitutions follows the chain as printed. Names and notes keep the numbering of the source. Where two headings read alike, the source gives them in different places.
Tests used:
[1] = biological target: T1, cytokine receptor common gamma chain (γc), wild type (human, UniProt P31785 23-369); test: co-immunoprecipitation from 293T lysates; γc precipitated, blot for the epitope-tagged Jak3 fragment
T1 construct: also called WT γc; gc
T1 sequence: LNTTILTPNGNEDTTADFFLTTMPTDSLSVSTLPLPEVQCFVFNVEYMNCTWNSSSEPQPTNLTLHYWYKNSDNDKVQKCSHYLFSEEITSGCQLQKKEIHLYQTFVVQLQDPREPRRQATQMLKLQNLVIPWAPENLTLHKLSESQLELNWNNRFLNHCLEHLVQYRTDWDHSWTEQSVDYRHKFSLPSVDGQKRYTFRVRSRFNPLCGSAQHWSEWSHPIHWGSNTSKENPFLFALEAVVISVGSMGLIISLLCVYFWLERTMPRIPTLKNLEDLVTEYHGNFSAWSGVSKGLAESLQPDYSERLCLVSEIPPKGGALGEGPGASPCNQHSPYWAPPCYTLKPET
Method: (§1) Lysates were centrifuged at 12,000×g, and NaCl was added to 500 mM final concentration. Lysates were immunoprecipitated with the appropriate antibody. Rabbit polyclonal, mouse monoclonal (M2), and Sepharose-conjugated M2 anti-FLAG antibodies were purchased from Kodak Scientific Imaging Systems (Rochester, N.Y.), Goat anti-γ_c antibody was purchased from R&D (Minneapolis, Minn.). Lysates were boiled, and subjected to 8% SDS-PAGE or 12% SDS-PAGE for experiments with Jak3 fragments, and electrotransferred onto […] membranes (Immobilon-P, Millipore, Bradford, Mass.). Membranes were probed with one of the following antibodies: Mouse monoclonal M2 anti-FLAG antibody, rabbit polyclonal anti-γ_c antibody, or mouse monoclonal anti-Myc tag antibody 9E10 (Santa Cruz Biotechnology, Santa Cruz, Calif.). For the immunoprecipitation with EBV-transformed B cell lines and the IL-2R expressing fibroblasts, cells were lysed as described above, except with a final NaCl concentration of 150 mM. Lysates were immunoprecipitated with monoclonal (M2) anti-FLAG antibody, rabbit polyclonal antibody directed against the C-terminus of Jak3 (α-Jak3; Kawamura, et al. (1994) *Proc Nat'l Acad Sci USA* 91:6374–8) or rabbit polyclonal antibody specific for STAT5b (Santa Cruz Biotechnology, Santa Cruz, Calif.). Immunoprecipitates were then washed, boiled, and resolved using SDS-PAGE. […]

[2] = tested on: T2, cytokine receptor common gamma chain (γc), wild type
T2 sequence: T1 sequence

[3] = biological target: T3, cytokine receptor common gamma chain (γc), wild type
T3 chain: T1 sequence

[4] = biological target: T1, cytokine receptor common gamma chain …; test: co-immunoprecipitation (summary of the combined results)
[5] = biological target: T1, cytokine receptor common gamma chain …; test: co-immunoprecipitation from 293T lysates; anti-FLAG M2 IP of FLAG-tagged Jak3, blot for γc
Method: as §1

[6] = biological target: T1, cytokine receptor common gamma chain …; test: co-immunoprecipitation, 293T cells

B1: Jak3 fragment J3 1-109 (other, not shown: small tags and cut ends)
chain: MAPPSEETPLIPQRSCSLLSTEAGALHVLLPARAPGPPQRLSFSFGDHLAEDLCVQAAKASGILPVYHSLFALATEDLSCWFPPSHIFSVEDASTQVLLYRIRFYFPNW
binding result [1]: no binding

B2: Jak3/Jak1 chimera J3 1-256 (enzyme, part only; not given: Jak1 C-terminal part and tag)
chain, part: MAPPSEETPLIPQRSCSLLSTEAGALHVLLPARAPGPPQRLSFSFGDHLAEDLCVQAAKASGILPVYHSLFALATEDLSCWFPPSHIFSVEDASTQVLLYRIRFYFPNWFGLEKCHRFGLRKDLASAILDLPVLEHLFAQHRSDLVSGRLPVGLSLKEQGECLSLAVLDLARMAREQAQRPGELLKTVSYKACLPPSLRDLIQGLSFVTRRAIRRTVRRALPRVAACQADRHSLMAKYIMDLERLDPAGAAETFHV
IL-2 induced tyrosine phosphorylation of STAT5b in IL-2R+ fibroblasts [2]: the J3 1-256 chimera (encoding both of the entire JH7/JH6 regions) responded to IL-2 stimulation by tyrosine phosphorylating STAT5b | IL-2 induced tyrosine phosphorylation of the chimera in IL-2R+ fibroblasts [2]: The smallest region of a chimeric Jak3/Jak1 which reconstituted IL-2-induced tyrosine phosphorylation was a region that contained both of the entire JH7 and JH6 domains | phosphorylation of IL-2Rβ after IL-2 in IL-2R+ fibroblasts [2]: it was only detected in cell lines that expressed Jak3/Jak1 chimeras having the entire JH7 and JH6 domains

B3: Jak3/Jak1 chimera J3 1-130 (enzyme, part only; not given: Jak1 C-terminal part and tag)
chain, part: MAPPSEETPLIPQRSCSLLSTEAGALHVLLPARAPGPPQRLSFSFGDHLAEDLCVQAAKASGILPVYHSLFALATEDLSCWFPPSHIFSVEDASTQVLLYRIRFYFPNWFGLEKCHRFGLRKDLASAILD
IL-2 induced tyrosine phosphorylation of STAT5b in IL-2R+ fibroblasts [2]: cells expressing the J3 1-130 chimera also failed to demonstrate STAT5b phosphorylation

B4: wild-type Jak3 (protein)
chain: MAPPSEETPLIPQRSCSLLSTEAGALHVLLPARAPGPPQRLSFSFGDHLAEDLCVQAAKASGILPVYHSLFALATEDLSCWFPPSHIFSVEDASTQVLLYRIRFYFPNWFGLEKCHRFGLRKDLASAILDLPVLEHLFAQHRSDLVSGRLPVGLSLKEQGECLSLAVLDLARMAREQAQRPGELLKTVSYKACLPPSLRDLIQGLSFVTRRAIRRTVRRALPRVAACQADRHSLMAKYIMDLERLDPAGAAETFHVGLPGALGGHDGLGLLRVAGDGGIAWTQGEQEVLQPFCDFPEIVDISIKQAPRVGPAGEHRLVTVTRTDNQILEAEFPGLPEALSFVALVDGYFRLTTDSQHFFCKEVAPPRLLEEVAEQCHGPITLDFAINKLKTGGSRPGSYVLRRSPQDFDSFLLTVCVQNPLGPDYKGCLIRRSPTGTFLLVGLSRPHSSLRELLATCWDGGLHVDGVAVTLTSCCIPRPKEKSNLIVVQRGHSPPTSSLVQPQSQYQLSQMTFHKIPADSLEWHENLGHGSFTKIYRGCRHEVVDGEARKTEVLLKVMDAKHKNCMESFLEAASLMSQVSYRHLVLLHGVCMAGDSTMVQEFVHLGAIDMYLRKRGHLVPASWKLQVVKQLAYALNYLEDKGLPHGNVSARKVLLAREGADGSPPFIKLSDPGVSPAVLSLEMLTDRIPWVAPECLREAQTLSLEADKWGFGATVWEVFSGVTMPISALDPAKKLQFYEDRQQLPAPKWTELALLIQQCMAYEPVQRPSFRAVIRDLNSLISSDYELLSDPTPGALAPRDGLWNGAQLYACQDPTIFEERHLKYISQLGKGNFGSVELCRYDPLAHNTGALVAVKQLQHSGPDQQRDFQREIQILKALHSDFIVKYRGVSYGPGRPELRLVMEYLPSGCLRDFLQRHRARLDASRLLLYSSQICKGMEYLGSRRCVHRDLAARNILVESEAHVKIADFGLAKLLPLDKDYYVVREPGQSPIFWYAPESLSDNIFSRQSDVWSFGVVLYELFTYCDKSCSPSAEFLRMMGCERDVPALCRLLELLEEGQRLPAPPACPAEVHELMKLCWAPSPQDRPSFSALGPQLDMLWSGSRGCETHAFTAHPEGKHHSLSFS
IL-2 induced tyrosine phosphorylation of Jak3 in IL-2R+ fibroblasts [3]: Jak3 was rapidly tyrosine phosphorylated and associated with the IL-2 receptor complex | IL-2 induced tyrosine phosphorylation of STAT5b in IL-2R+ fibroblasts [3]: Cells expressing wild type Jak3 (WT) exhibited tyrosine phosphorylation of STAT5b

B5: Jak3 Y100A mutant (enzyme)
chain: B4 chain with Y100A
notes: not shown: C-terminal FLAG or Myc tag joined through a ClaI site
binding result [4]: no binding

B6: Jak3 Y100C/Y105F double mutant (enzyme)
chain: B4 chain with Y100C, Y105F
notes: not shown: C-terminal FLAG tag (single copy) joined through a ClaI site
binding result [5]: no binding

B7: Jak3 I102A (enzyme)
chain: B4 chain with I102A
notes: as for B5
binding result [4]: no binding

B8: Jak3 Y100C/K855A (enzyme)
chain: B4 chain with Y100C, K855A
notes: also called J3 Y100C/K855A; not shown: C-terminal FLAG or Myc tag joined through a ClaI site
binding result [6]: no binding

B9: Jak3 Y100C (enzyme)
chain: B4 chain with Y100C
notes: also called Y100C mutant; patient mutant; not shown: C-terminal FLAG tag (single copy) joined through a ClaI site
binding result [5]: no binding | IL-2 induced tyrosine phosphorylation of Jak3 in IL-2R+ fibroblasts [3]: no IL-2-induced phosphorylation of Jak3 Y100C was observed

B10: Jak3 L98A (enzyme)
chain: B4 chain with L98A
notes: also called Leucine 98A; not shown: C-terminal FLAG or Myc tag joined through a ClaI site
binding result [4]: no binding
